Reference: the supplement of paper PMC10724198
± gives the standard deviation of the averaged measurements.

Test system: Saccharomyces cerevisiae
Experiment: protein stability index of tFT-peptide fusion (C-terminal peptide) (PSI (0-1 scale)); higher = more stable (slower turnover)
Details: temperature: 30 C
Method: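 MPS profiling in S. cerevisiae of the yeast C-terminome library: the last 12 aa of each annotated ORF are fused to the C-terminus of a sfGFP-mCherry timer, after a GGGS linker. Cells are FACS-sorted into 8 mCherry/sfGFP bins and deep-sequenced. PSI runs from 0 (unstable) to 1 (stable); wild type and das1Δ backgrounds, two technical replicates each.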

[1] = genetic background: das1 deletion

| Sequence | protein stability index [1] | protein stability index (genetic background: wild type) |
| --- | --- | --- |
| KKGRQERKLANR [PPZ2 C-terminal 12 aa] | 0.689 ± 0.026 | 0.683 ± 0.029 |
| ELIEKLKEVKAI [CIR1 C-terminal 12 aa] | 0.686 ± 0.018 | 0.34 ± 0.013 |
| RMYTRHKTSFPL [YAL042C-A C-terminal 12 aa] | 0.711 ± 0.02 | 0.66427 ± 0.00065 |
| PVHLEAIDLIDC [HSP150 C-terminal 12 aa] | 0.7087 ± 0.0034 | 0.714 ± 0.024 |
| QTDNTSATNQLL [YSP2 C-terminal 12 aa] | 0.7 ± 0.0084 | 0.701 ± 0.029 |
| GQSLTNTGGGCC [YPT1 C-terminal 12 aa] | 0.707 ± 0.011 | 0.6389 ± 0.00065 |
| ILERRLNEDHDC [KXD1 C-terminal 12 aa] | 0.696 ± 0.025 | 0.6885 ± 0.0056 |
| LHVVSSAYFEIQ [YEL075C C-terminal 12 aa] | 0.674 ± 0.041 | 0.626 ± 0.044 |
| ESKDDDDDDDWE [DOS2 C-terminal 12 aa] | 0.709 ± 0.038 | 0.648 ± 0.0095 |
| LNDMVLELKENY [NNF1 C-terminal 12 aa] | 0.698 ± 0.015 | 0.704 ± 0.0096 |
| LVRFIEAEKFVG [SNX3 C-terminal 12 aa] | 0.7119 ± 0.003 | 0.6912 ± 0.0047 |
| CFWRMICSEPKL [YAR064W C-terminal 12 aa] | 0.736 ± 0.0093 | 0.623 ± 0.052 |
| PCTASITSLISF [YDR269C C-terminal 12 aa] | 0.709 ± 0.012 | 0.731 ± 0.03 |
| HELKTHLPLNLI [SMT1 C-terminal 12 aa] | 0.707 ± 0.018 | 0.697 ± 0.037 |
| GKYFLKEEQDEI [YUR1 C-terminal 12 aa] | 0.692 ± 0.025 | 0.7058 ± 0.0067 |
| IAIGFGVGITRE [BUD8 C-terminal 12 aa] | 0.688 ± 0.035 | 0.739 ± 0.022 |
| MSSFLSKKENNN [SNT1 C-terminal 12 aa] | 0.722 ± 0.024 | 0.6618 ± 0.005 |
| VRILTKYPKILV [RIM101 C-terminal 12 aa] | 0.488 ± 0.021 | 0.5 ± 0.0066 |
| HYEAVRANFEGA [PEX6 C-terminal 12 aa] | 0.7023 ± 0.0047 | 0.724 ± 0.012 |
| NTSGQKPNEYNY [APA1 C-terminal 12 aa] | 0.7049 ± 0.0049 | 0.698 ± 0.018 |
| LMQLLLGSLGLS [YKL145W-A C-terminal 12 aa] | 0.706 ± 0.0093 | 0.716 ± 0.031 |

| Sequence | protein stability index [1] | protein stability index (genetic background: wild type) |
| --- | --- | --- |
| GGRNQYGGDDDY [DDR48 C-terminal 12 aa] | 0.698 ± 0.015 | 0.6858 ± 0.0067 |
| VLELSLGFTKLD [MON2 C-terminal 12 aa] | 0.7141 ± 0.0071 | 0.707 ± 0.041 |
| IWLVYKLYCFIF [CST26 C-terminal 12 aa] | 0.3724 ± 0.0025 | 0.3155 ± 0.0014 |
| LGSNCVFLAIFR [YPL222C-A C-terminal 12 aa] | 0.674 ± 0.032 | 0.648 ± 0.02 |
| KEYISDQRKKRK [LOA1 C-terminal 12 aa] | 0.6823 ± 0.00078 | 0.722 ± 0.023 |
| LEKSTNPIKKNN [VOA1 C-terminal 12 aa] | 0.703 ± 0.023 | 0.765 ± 0.038 |
| KPLYYRIYRFFC [MMP1 C-terminal 12 aa] | 0.764 ± 0.013 | 0.537 ± 0.0091 |
| SSNEDKKGMCKL [IDP3 C-terminal 12 aa] | 0.736 ± 0.048 | 0.901 ± 0.037 |
| TVDYIASNPDAN [ACP1 C-terminal 12 aa] | 0.696 ± 0.0025 | 0.736 ± 0.038 |
| KTSSKGNARTLL [FMP49 C-terminal 12 aa] | 0.698 ± 0.025 | 0.709 ± 0.0091 |
| DDILSHGFEPLA [HTC1 C-terminal 12 aa] | 0.7177 ± 0.0033 | 0.706 ± 0.027 |
| TPTCQDPSLTEV [YJR038C C-terminal 12 aa] | 0.7253 ± 0.0048 | 0.6895 ± 0.0068 |
| ETAENIAKYIRN [NPA3 C-terminal 12 aa] | 0.682 ± 0.024 | 0.661 ± 0.035 |
| LGKKKPPSRLFR [CDC25 C-terminal 12 aa] | 0.707 ± 0.019 | 0.715 ± 0.035 |
| VLFLEDNGFFVF [MET3 C-terminal 12 aa] | 0.765 ± 0.024 | 0.775 ± 0.037 |
| GYWEDVFVHLAL [HMLALPHA1 C-terminal 12 aa] | 0.7685 ± 0.0061 | 0.757 ± 0.012 |
| DRCKEAVDHLMS [ISM1 C-terminal 12 aa] | 0.686 ± 0.011 | 0.70544 ± 0.00054 |
| KAGEMVLKSLRR [SCP160 C-terminal 12 aa] | 0.67 ± 0.028 | 0.783 ± 0.017 |
| KKNDTPKPKPLK [SFC1 C-terminal 12 aa] | 0.7063 ± 0.00074 | 0.678 ± 0.01 |
| QLSRNEESLMKK [COS5 C-terminal 12 aa] | 0.7 ± 0.015 | 0.752 ± 0.059 |
| YIKKSAKKGDKN [YHR140W C-terminal 12 aa] | 0.676 ± 0.032 | 0.65 ± 0.016 |

| Sequence | protein stability index [1] | protein stability index (genetic background: wild type) |
| --- | --- | --- |
| IDFLVEEATLNE [YAP3 C-terminal 12 aa] | 0.70065 ± 9.1e-05 | 0.673 ± 0.032 |
| QTINTKPLYIKN [YGR290W C-terminal 12 aa] | 0.686 ± 0.02 | 0.665 ± 0.075 |
| QMTRNVNNNDFS [YAH1 C-terminal 12 aa] | 0.711 ± 0.028 | 0.664 ± 0.014 |
| KVETVLNKMFEK [REC114 C-terminal 12 aa] | 0.701 ± 0.015 | 0.687 ± 0.022 |
| GKVLFKPSSSIF [YBR064W C-terminal 12 aa] | 0.719 ± 0.011 | 0.695 ± 0.017 |
| KINYDAIDGLFR [BRF1 C-terminal 12 aa] | 0.71 ± 0.013 | 0.681 ± 0.014 |
| KCEEVNDGLRWK [EHD3 C-terminal 12 aa] | 0.6964 ± 0.0049 | 0.711 ± 0.1 |
| YFSSNISMKTEN [REB1 C-terminal 12 aa] | 0.7171 ± 0.0057 | 0.7373 ± 0.0014 |
| FKELLGYTLVSA [VSB1 C-terminal 12 aa] | 0.356 ± 0.03 | 0.391 ± 0.0093 |
| INKTLAWMDEGL [ERG26 C-terminal 12 aa] | 0.694 ± 0.013 | 0.728 ± 0.055 |
| GNLMRSSNVLEK [SLO1 C-terminal 12 aa] | 0.685 ± 0.0076 | 0.7 ± 0.016 |
| DVDLTKSGGFKT [CKB2 C-terminal 12 aa] | 0.67664 ± 0.00023 | 0.714 ± 0.058 |
| IGIGFGVGIIRE [BUD9 C-terminal 12 aa] | 0.698 ± 0.052 | 0.686 ± 0.036 |
| VEKKKVLSKITL [VPH2 C-terminal 12 aa] | 0.691 ± 0.033 | 0.691 ± 0.048 |
| RGRGALVDSDDE [ELF1 C-terminal 12 aa] | 0.713 ± 0.026 | 0.674 ± 0.046 |
| SLEHFIDSVSSL [TRP4 C-terminal 12 aa] | 0.7199 ± 0.0016 | 0.672 ± 0.013 |
| NVYRLTLMIFRL [YMR013W-A C-terminal 12 aa] | 0.428 ± 0.016 | 0.249 ± 0.0095 |
| KIEVSSQESWGN [HSP26 C-terminal 12 aa] | 0.68 ± 0.0024 | 0.693 ± 0.037 |
| DRIAAQTLEEDE [RPS19A C-terminal 12 aa] | 0.687 ± 0.031 | 0.693 ± 0.05 |
| TASQILKFEGRI [GRE2 C-terminal 12 aa] | 0.718 ± 0.035 | 0.695 ± 0.057 |
| RITRLSSMTYTY [YPS5 C-terminal 12 aa] | 0.711 ± 0.038 | 0.69 ± 0.033 |

| Sequence | protein stability index [1] | protein stability index (genetic background: wild type) |
| --- | --- | --- |
| QDMMSGFLGGSK [GET4 C-terminal 12 aa] | 0.69072 ± 1.9e-05 | 0.667 ± 0.0077 |
| YAGHRFHDGNKL [ERR1 C-terminal 12 aa] | 0.726 ± 0.009 | 0.737 ± 0.043 |
| NKRLKKILNNTK [RME1 C-terminal 12 aa] | 0.702 ± 0.014 | 0.674 ± 0.023 |
| CAVGGPEKLKFY [BUD3 C-terminal 12 aa] | 0.726 ± 0.018 | 0.758 ± 0.018 |
| EEWSSKFGSNGS [YTA6 C-terminal 12 aa] | 0.7431 ± 0.0031 | 0.725 ± 0.014 |
| YVKEAQSVVTSL [YIR043C C-terminal 12 aa] | 0.672 ± 0.013 | 0.659 ± 0.029 |
| DETIKLKDKKIK [MRPL6 C-terminal 12 aa] | 0.714 ± 0.012 | 0.655 ± 0.028 |
| QVPEEDFPVVNY [DNL4 C-terminal 12 aa] | 0.697 ± 0.009 | 0.718 ± 0.034 |
| FFMSDMNLSKEG [ATG13 C-terminal 12 aa] | 0.752 ± 0.016 | 0.654 ± 0.048 |
| NEEYIEELDLVL [HSH155 C-terminal 12 aa] | 0.696 ± 0.0089 | 0.674 ± 0.015 |
| CSGIPSGSGASC [PGU1 C-terminal 12 aa] | 0.691 ± 0.011 | 0.673 ± 0.076 |
| KPLLTSIFPNHK [YBL012C C-terminal 12 aa] | 0.718 ± 0.064 | 0.667 ± 0.0098 |
| EKLKLLNSQQKD [PET191 C-terminal 12 aa] | 0.682 ± 0.014 | 0.722 ± 0.029 |
| HHNQIGVPRVEN [GID8 C-terminal 12 aa] | 0.679 ± 0.013 | 0.674 ± 0.011 |
| LVLKQRQEQEKQ [GDI1 C-terminal 12 aa] | 0.688 ± 0.025 | 0.717 ± 0.06 |
| KMLDALKNERKK [HTL1 C-terminal 12 aa] | 0.716 ± 0.015 | 0.673 ± 0.038 |
| DNNDLAKSSSQK [CMI7 C-terminal 12 aa] | 0.7059 ± 0.0068 | 0.66 ± 0.048 |
| RLRKWLSTFVHQ [YNL034W C-terminal 12 aa] | 0.756 ± 0.045 | 0.182 ± 0.017 |
| GGFDDGFDGSDF [WWM1 C-terminal 12 aa] | 0.719 ± 0.012 | 0.728 ± 0.0098 |
